Experimental data as given in patent US20020160955A1 (published 2002).

What was measured:
[1] = target: T1, IGF-I G1S-A70V displayed on phage (human; bacteriophage M13); test: competitive phage ELISA
T1 construct: monovalent M13 phage display; template of the alanine scan; also called G1S-A70V IGF-I; wild-type-like IGF-I variant; not shown: M13 gene III fragment (residues 249-406, display partner) and the junction to it
Summary of the method: (§1)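 Phage, normalized to a maximal ELISA signal of 0.2-0.4 per mutant, were premixed with threefold serial dilutions of soluble competitor in 0.5% Tween 20/PBS and incubated 1 h at room temperature on immobilized target.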

[2] = target: T2, IGF-I S34A (G1S-A70V background) displayed on phage (human; bacteriophage M13); test: competitive phage ELISA
T2 construct: monovalent M13 phage display; not shown: M13 gene III fragment (residues 249-406, display partner) and the junction to it
T2 chain: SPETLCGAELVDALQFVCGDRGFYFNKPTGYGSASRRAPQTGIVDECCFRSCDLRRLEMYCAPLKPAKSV
Summary of the method: as §1

[3] = target: T3, IGF-I Y31A (G1S-A70V background) displayed on phage (human; bacteriophage M13); test: competitive phage ELISA
T3 construct: monovalent M13 phage display; not shown: M13 gene III fragment (residues 249-406, display partner) and the junction to it
T3 chain: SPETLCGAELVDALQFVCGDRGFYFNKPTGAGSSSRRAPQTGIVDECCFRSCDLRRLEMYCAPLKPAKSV
Summary of the method: as §1

[4] = target: T4, IGF-I R50A (G1S-A70V background) displayed on phage (human; bacteriophage M13); test: competitive phage ELISA
T4 construct: monovalent M13 phage display
T4 chain: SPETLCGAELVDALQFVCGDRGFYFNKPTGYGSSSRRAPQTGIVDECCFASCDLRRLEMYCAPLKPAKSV
Summary of the method: as §1

[5] = target: T5, IGF-I D45A (G1S-A70V background) displayed on phage (human; bacteriophage M13); test: competitive phage ELISA
T5 construct: monovalent M13 phage display
T5 chain: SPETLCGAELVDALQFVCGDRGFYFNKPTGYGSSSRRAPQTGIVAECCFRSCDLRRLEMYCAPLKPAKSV
Summary of the method: as §1

[6] = target: T6, IGF-I G22A (G1S-A70V background) displayed on phage (human; bacteriophage M13, not fully specified; Displayed monovalently on M13 phage as a C-terminal fusion to the gene III fragment, which is left out of the letters.); test: competitive phage ELISA
T6 construct: monovalent M13 phage display; not shown: Display carrier: M13 gene III fragment (residues 249-406) and its junction
T6 chain: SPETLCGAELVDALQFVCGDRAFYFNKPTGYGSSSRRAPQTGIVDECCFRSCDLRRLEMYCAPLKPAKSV
Summary of the method: as §1

[7] = target: T7, IGF-I Y24A (G1S-A70V background) displayed on phage (human; bacteriophage M13, not fully specified; Displayed monovalently on M13 phage as a C-terminal fusion to the gene III fragment, which is left out of the letters.); test: competitive phage ELISA
T7 construct: monovalent M13 phage display; not shown: Display carrier: M13 gene III fragment (residues 249-406) and its junction
T7 chain: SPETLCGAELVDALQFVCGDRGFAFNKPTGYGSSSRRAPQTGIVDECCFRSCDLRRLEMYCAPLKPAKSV
Summary of the method: as §1

[8] = target: T8, des(1-2)-IGF-I displayed on phage (human; bacteriophage M13); test: competitive phage ELISA
T8 construct: range 249-406; monovalent M13 phage display
Summary of the method: as §1

[9] = target: T9, IGF-I E9A (G1S-A70V background) displayed on phage (human; bacteriophage M13); test: competitive phage ELISA
T9 construct: monovalent M13 phage display
T9 chain: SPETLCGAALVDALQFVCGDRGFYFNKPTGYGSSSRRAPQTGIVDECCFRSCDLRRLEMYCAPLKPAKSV
Summary of the method: as §1

[10] = target: T10, IGF-I S1A (G1S-A70V background) displayed on phage (human; bacteriophage M13); test: competitive phage ELISA
T10 construct: range 249-406; monovalent M13 phage display
Summary of the method: as §1

[11] = target: T11, IGF-I V17A (G1S-A70V background) displayed on phage (human; bacteriophage M13); test: competitive phage ELISA
T11 construct: monovalent M13 phage display
T11 chain: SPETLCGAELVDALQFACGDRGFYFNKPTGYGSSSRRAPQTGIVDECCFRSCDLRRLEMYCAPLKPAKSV
Summary of the method: as §1

[12] = target: T12, IGF-I I43A (G1S-A70V background) displayed on phage (human; bacteriophage M13); test: competitive phage ELISA
T12 construct: monovalent M13 phage display
T12 chain: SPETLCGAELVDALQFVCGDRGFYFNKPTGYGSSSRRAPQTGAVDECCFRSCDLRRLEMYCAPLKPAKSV
Summary of the method: as §1

[13] = target: T1, IGF-I G1S-A70V displayed on phage; test: competitive phage ELISA (FIG. 1)
Experimental: Then phage concentrations were normalized to yield a maximal ELISA signal of 0.2-0.4 for each mutant (Lowman, in Cabilly, S. (ed.), supra). Threefold serial dilutions of soluble competitor were prepared on non-absorbent microtiter plates (Nunc, F, 96 wells) with binding buffer (0.5% TWEEN™ 20/PBS) containing phage at the previously-determined concentrations. […] After blocking, the plates containing immobilized target were washed with 0.05% TWEEN™/PBS buffer and subsequently incubated with 80 μl/well of the premixed phage-competitor solutions for 1 hour at room temperature. After washing, bound phage was detected with 80 μl/well of a solution containing a primary rabbit anti-phage polyclonal antibody and a secondary goat anti-rabbit monoclonal antibody-horseradish peroxidase conjugate in 0.5% TWEEN 20™/PBS. o-Phenylenediamine (Sigma) and tetramethylbenzidine (Kirkegaard and Perry) were used as chromogenic substrates, resulting in product detection at 492 and 450 nm, respectively. IC₅₀ values were determined by fitting the binding data to a generic saturation curve (Lowman, in Cabilly, S. (ed.), supra). […] Numbers in Table I represent mean +standard deviation of individually assessed IC₅₀ values.

B1: human IGFBP-1 (other, UniProt P08833 26-259, looked up)
chain: APWQCAPCSAEKLALCPPVSASCSEVTRSAGCGCCPMCALPLGAACGVATARCARGLSCRALPGEQQPLHALTRGQGACVQESDASAPHAAEAGSPESPESTEITEEELLDNFHLMAPSEEDHSILWDAISTYDGSKALHVTNIKKWKEPCRIELYRVVESLAKAQETSGEEISKFYLPNCNKNGFYHSRQCETSMDGEAGLCWCVYPWNGKRIPGSPEIRGDPNCQIYFNVQN
notes: secreted recombinant protein purified from conditioned medium
- IC50 [1]: 8.2 nM
- IC50 [2]: 9.5 nM
- IC50 [3]: 6.8 nM
- IC50 [4]: 16.2 nM
- IC50 [5]: 4.7 nM
- IC50 [6]: 15.9 nM
- IC50 [7]: 13.3 nM
- IC50 [8]: 5 nM
- IC50 [9]: 8.6 nM
- IC50 [10]: 5.2 nM
- IC50 [11]: 42.9 nM
- IC50 [12]: 31.3 nM
- IC50 [13]: 8.5 nM
